# Biological target: the molecule itself
# Assay: AUC + other: small-angle X-ray scattering (AUC-SAS); sedimentation velocity AUC (45 000 r/min, interference optics) and laboratory SAXS, 298 K; 2.0 mg/ml in 100 mM Tris-HCl pH 7.5, 100 mM NaCl; the derived profile of the main component was compared with the structure of the 24-mer and with SEC-SAXS
protein,measurement,value
"apoferritin (natural protein, apoferritin; it uses PDB 4v1w as the structure of this protein; PDB 4v1w is horse spleen apoferritin (light chain); also called AF; AF5; source: bought: Merck, Sigma-Aldrich; purified by SEC (Superose 6 Increase 10/300 GL); copies: 24) SSQIRQNYSTEVEAAVNRLVNLYLRASYTYLSLGFYFDRDDVALEGVCHFFRELAEEKREGAERLLKMQNQRGGRALFQDLQKPSQDEWGTTLDAMKAAIVLEKSLNQALLDLHALGSAQADPHLCDFLESHFLDEEVKLIKKMGDHLTNIQRLVGSQAGLGEYLFERLTLKHD",stoichiometry N,24
